The results in this text go back to patent US20250250330A1 (REVOPSIS THERAPEUTICS, published 2025).

“And” between values parts separate entries of the source, which are not always exact repeats. Equal values may be shown once.

The target of assay [1] is T1, rdVEGF163 (canine/dog; R&D 1603-CV-010/CF) (Canine/Dog, UniProt Q9MYV3-3 27-190, limits assumed).
T1 construct: Bought protein; also called Dog VEGF-A
T1 sequence (looked up): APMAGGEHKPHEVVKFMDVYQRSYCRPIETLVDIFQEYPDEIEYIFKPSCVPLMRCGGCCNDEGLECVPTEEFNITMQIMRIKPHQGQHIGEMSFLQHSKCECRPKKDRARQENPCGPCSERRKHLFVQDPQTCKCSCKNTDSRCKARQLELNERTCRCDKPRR
The assay is described as follows: ELISA on coated dog VEGF-A. In general terms: ELISA stands for enzyme-linked immunosorbent assay.

Assay [2] addresses T2, Recombinant human VEGF165 (Peprotech, Cat #100-20) (human, UniProt P15692-4 27-191).
T2 construct: Bought protein; also called rhVEGF165; rh VEGF165
The experiment in a line: ELISA; target coated at 1 ug/mL, anti-human IgG Fc-HRP detection. The procedure: (§1) Third, the binding to rhPIGF-1 or rhPIGF-3 was tested in comparison with rhVEGF₁₆₅. Target proteins were used to coat Corning 9017 medium binding plates at 1 μg/mL and 100 μl per well. […] Donkey anti-human IgG Fcγ-HRP was used for detection. OD450 nm readings were measured by Victor 3.

The target of assay [3] is T3, His-tagged recombinant human ANG-2 (AcroBiosystems, Cat #AN2-H52H4) (human, UniProt O15123 275-496).
T3 construct: also called rhANG-2; rhANG-2-His; not shown: His tag
T3 sequence (looked up): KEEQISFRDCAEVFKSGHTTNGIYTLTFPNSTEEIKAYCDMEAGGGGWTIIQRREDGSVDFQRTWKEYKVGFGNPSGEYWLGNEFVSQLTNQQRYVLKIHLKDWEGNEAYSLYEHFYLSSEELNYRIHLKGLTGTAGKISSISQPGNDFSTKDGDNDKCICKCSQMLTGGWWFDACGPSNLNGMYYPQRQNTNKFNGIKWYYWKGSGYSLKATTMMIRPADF
The experiment in a line: ELISA on coated human ANG-2.

Assay [4] addresses T2, Recombinant human VEGF165 (Peprotech, …). The experiment in a line: ELISA; rhVEGF165 coated, anti-human IgG Fc-HRP detection. From the text:
The binding was detected by HRP-conjugated donkey anti-human IgG Fcγ antibody (Jackson ImmunoResearch Laboratories, Cat #709-035-098).

For assay [5], the target named is T4, Recombinant human VEGF121 (Peprotech, Cat #100-20A) (human, UniProt P15692-9 27-147).
T4 construct: Bought protein; also called rhVEGF121; rh VEGF121
T4 sequence (looked up): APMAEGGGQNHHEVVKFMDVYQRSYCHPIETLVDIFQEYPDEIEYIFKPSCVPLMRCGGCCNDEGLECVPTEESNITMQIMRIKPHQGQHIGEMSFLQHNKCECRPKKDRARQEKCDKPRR
The experiment in a line: ELISA; rhVEGF121 coated at 1 ug/mL, anti-human IgG Fc-HRP detection (RO-101_Sample 1). The procedure:
Donkey anti-human IgG Fcγ-HRP (Jackson ImmunoResearch Laboratories, Cat #709-035-098) was used for detection and visualized by TMB substrate. OD450 nm readings were measured by Victor 3 (PerkinElmer 1420 Multilabel Counter).

In assay [6] the target is T3, His-tagged recombinant human ANG-2 …. The experiment in a line: competition ELISA; IC50 ratio against Faricimab for inhibition of ANG-2-Tie-2 binding.
For assay [7], the target named is T5, rhPlGF-1 (Peprotech_100-06) (human, UniProt P49763-2 19-149).
T5 construct: Bought protein; also called rhPIGF-1; PIGF-1
T5 sequence (looked up): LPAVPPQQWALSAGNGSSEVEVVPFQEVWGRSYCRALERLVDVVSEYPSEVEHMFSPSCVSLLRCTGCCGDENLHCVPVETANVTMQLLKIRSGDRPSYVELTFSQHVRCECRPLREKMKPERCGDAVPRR
The experiment in a line: ELISA: rhPlGF-1_Peprotech coated at 1 ug/mL, RO-101_Sample 1 from 100 nM in 1:3 dilutions, detected with anti-human IgG Fc-gamma-HRP. Here is the method: as §1

Assay [8] has as its target T6, rhVEGF-B_Peprotech (Peprotech_100-20B) (human, UniProt P49765-2 22-188).
T6 construct: Bought protein
T6 sequence (looked up): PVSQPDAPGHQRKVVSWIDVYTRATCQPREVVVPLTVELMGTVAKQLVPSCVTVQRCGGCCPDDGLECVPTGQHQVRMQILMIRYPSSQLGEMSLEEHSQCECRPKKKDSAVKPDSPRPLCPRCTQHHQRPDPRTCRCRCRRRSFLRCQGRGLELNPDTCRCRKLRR
The experiment in a line: ELISA; target coated at 1 ug/mL, anti-human IgG Fc-HRP detection. The procedure: (§2) First, the binding to rhVEGF-B was tested in comparison with rhVEGF₁₆₅. rhVEGF-B or rhVEGF₁₆₅ was used to coat Corning 9017 medium binding plates at 1 μg/mL and […] per well. […] Donkey anti-human IgG Fcγ-HRP was used for detection. OD450 nm readings were measured by Victor 3.

Assay [9] concerns the target T2, Recombinant human VEGF165 (Peprotech, …). The assay is described as above. Here is the method:
as §2
This is another data set of the same source.

The target in assay [10] is T7, rhVEGF-B_AcroBio (AcroBio_VE6-H5225) (human, UniProt P49765 22-207).
T7 construct: Bought protein; not shown: His tag
T7 sequence (looked up): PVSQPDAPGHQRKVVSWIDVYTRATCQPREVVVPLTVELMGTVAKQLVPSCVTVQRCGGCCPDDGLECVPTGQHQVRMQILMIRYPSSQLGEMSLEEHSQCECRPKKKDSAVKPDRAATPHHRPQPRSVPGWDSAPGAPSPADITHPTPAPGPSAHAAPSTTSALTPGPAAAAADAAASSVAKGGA
The assay is described as above. Here is the method:
as §2

The target in assay [11] is T2, Recombinant human VEGF165 (Peprotech, …). The assay is described as follows: ELISA; rhVEGF165 coated, anti-human IgG Fc-HRP detection. Here is the method: VEGF₁₆₅ was used to coat Corning 9017 medium binding plates. […] Donkey anti-human IgG Fcγ-HRP (Jackson ImmunoResearch Laboratories, Cat #709-035-098) was used for detection and visualized by TMB substrate. OD450 nm readings were measured by Victor 3 with PerkinElmer 1420 Multilabel Counter.
The source holds these as a separate data set.

B1: RO-101 VEGF/ANG-2 bispecific surrobody (bispecific antibody, human IgG1, L234A L235A)
heavy 1: not shown
heavy 2: EVQLVESGGGLVKPGGSLRLSCAASGFTFSSYGMHWVRQAPGKGLEWVAGISADSGDKNYADSVKGRFTISRDNAKNSLYLQMNSLRAEDTAVYYCAKEFISWIYTFDYLDYWGQGTLVTVSSASTKGPSVFPLAPSSKSTSGGTAALGCLVKDYFPEPVTVSWNSGALTSGVHTFPAVLQSSGLYSLSSVVTVPSSSLGTQTYICNVNHKPSNTKVDKKVEPKSCDKTHTCPPCPAPEAAGGPSVFLFPPKPKDTLMISRTPEVTCVVVDVSHEDPEVKFNWYVDGVEVHNAKTKPREEQYNSTYRVVSVLTVLHQDWLNGKEYKCKVSNKALPAPIEKTISKAKGQPREPQVCTLPPSRDELTKNQVSLSCAVKGFYPSDIAVEWESNGQPENNYKTTPPVLDSDGSFFLVSKLTVDKSRWQQGNVFSCSVMHEALHNHYTQKSLSLSPG
light: QPVLHQPPAMSSALGTTIRLTCTLRNDHDIGVYSVYWYQQRPGHPPRFLLRYFSQSDKSQGPQVPPRFSGSKDVARNRGYLSISELQPEDEAMYYCAMGARSSVTHVFGSGTQLTVLSQPKATPSVTLFPPSSEELQANKATLVCLMNDFYPGILTVTWKADGTPITQGVEMTTPSKQSNNKYAASSYLSLTPEQWRSRRSYSCQVMHEGSTVEKTVAPAECS
notes: Format SgG1; also called Sample 1
Usually EC50 stands for the concentration needed to bring the measured effect to its halfway point. Regarding B1, the concentration for a half-maximal effect (EC50) in assay [1] was 0.0237 nM; in assay [2] it was 0.0162 nM; in assay [3] it was 0.007 nM; in [4], 0.0401 nM and 0.0556 nM and 0.0417 nM; in assay [5], 0.0146 nM; in assay [8], over 100 nM. The EC50 in assay [9] was 0.0165 nM; in assay [10], over 100 nM; in [11] it was 0.0231 nM. In [6], the Fold was 17.2 fold. In addition, the binding result in assay [7] is “no binding (tested: 100 nM (Log(nM) 2))”.
